Experimental data published in publication PMC7052140.

Tests used:
[1] = target: Cyt1Aa E32Q activated toxin (Bacillus thuringiensis subsp. israelensis)
[2] = target: Cyt1Aa E45Q activated toxin (Bacillus thuringiensis subsp. israelensis)
[3] = target: Cyt1Aa Q168E activated toxin (Bacillus thuringiensis subsp. israelensis)
[4] = target: Cyt1Aa activated toxin, wild type (Bacillus thuringiensis subsp. israelensis) (UniProt P0A382); assay: atomic force microscopy on supported lipid bilayers

Substance: Cyt1Aa E32Q activated toxin (domain or fragment)
- fold reduction of cytotoxicity on HEK293 cells against the WT toxin [1]: 2.4 fold

Substance: Cyt1Aa E45Q activated toxin (domain or fragment)
- fold reduction of cytotoxicity on HEK293 cells against the WT toxin [2]: 14 fold

Substance: Cyt1Aa Q168E activated toxin (domain or fragment)
- cytotoxicity on HEK293 cells (LC50) [3]: > 30 µM

Substance: Cyt1Aa activated toxin, wild type (from UniProt P0A382 1-249) (domain or fragment)
- stoichiometry N [4]: 56
